± gives the uncertainty stated by the source.
Assay: self-splicing fitness, log relative to wild type (ln ratio); higher = more splicing; Tetrahymena group I intron in knt gene, E. coli kanamycin selection, DiMSum; sequences stand for … in CUCUCU…GGAGGGAAAAGUUAUCAGGCAUGCACCUGGUAGCUAGUCUUUAAACCAAUAGAUUGCAUCGGUUUAAAAGGCAAGACCGUCAAAUUGCGGGAAAGGGGUCAACAGCCGUUCAGUACCAAGUCUCAGGGGAAACUUUGAGAUGGCCUUGCAAAGGGUAUGGUAAUAAGCUGACGGACAUGGUCCUAACCACGCAGCCAAGUCCUAAGUCAACAGAUCUUCUGUUGAUAUGGAUGCAGUUCACAGACUAAAUGUCGGUCGGGGAAGAUGUAUUCUUCUCAUAAGAUAUAGUCGGACCUCUCCUUAAUGGGAGCUAGCGGAUGAAGUGAUGCAACACUGGAGCCGCUGGGAACUAAUUUGUAUGCGAAAGUAUAUUGAUUAGUUUUGGAGUACUCGUGGUCG
Method in brief: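 Colonies from six replicate transformations of E. coli BL21(DE3) were pooled and amplicon-sequenced on an Illumina HiSeq 2500. The library placed an intron with all eight P1ex-region nucleotides randomised inside the knt kanamycin-resistance gene on pET-22b(+), and cells grew overnight at 37°C or 30°C on LB agar with or without 25 μg/mL kanamycin (plus 100 μg/mL carbenicillin, 50 μM IPTG, 0.2% rhamnose). Fitness is the DiMSum error-weighted combination of wild-type-normalised replicate fold changes, kanamycin versus none.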

| Sequence | self-splicing fitness (ln) (30 °C) | self-splicing fitness (ln) (37 °C) |
| --- | --- | --- |
| CUAAAGCAAUAUUACGCAAU | -3.94 ± 0.21 | -2.97 ± 0.24 |
| CUAAAGCAAUAUUACGCCUG | 0.183 ± 0.087 | 0.129 ± 0.099 |
| CUAAAGCAAUAUUACGCCUU | -3.79 ± 0.26 | -1.25 ± 0.22 |
| CUAAAGCAAUAUUACGCGAU | -0.384 ± 0.051 | 0.349 ± 0.062 |
| CUAAAGCAAUAUUACGCGGA | -3.85 ± 0.3 | -3.62 ± 0.24 |
| CUAAAGCAAUAUUACGCGGU | -1.44 ± 0.097 | -1.2 ± 0.094 |
| CUAAAGCAAUAUUACGGACA | -3.1 ± 0.17 | -2.34 ± 0.21 |
| CUAAAGCAAUAUUACGGACG | 0.255 ± 0.084 | -0.189 ± 0.092 |
| CUAAAGCAAUAUUACGGCGA | -3.59 ± 0.25 | -1.96 ± 0.19 |
| CUAAAGCAAUAUUACGGCGU | -3.68 ± 0.23 | -3.05 ± 0.35 |
| CUAAAGCAAUAUUACGGGAU | -1.86 ± 0.087 | -0.984 ± 0.12 |
| CUAAAGCAAUAUUACGGGUC | -3.75 ± 0.21 | -3.33 ± 0.37 |
| CUAAAGCAAUAUUACGGUAA | -3.53 ± 0.15 | -2.36 ± 0.18 |
| CUAAAGCAAUAUUACGGUGA | -4.11 ± 0.2 | -1.6 ± 0.14 |
| CUAAAGCAAUAUUACGUACG | 0.59 ± 0.095 | 0.0866 ± 0.099 |
| CUAAAGCAAUAUUACGUAUU | -3.61 ± 0.19 | -2.17 ± 0.24 |
| CUAAAGCAAUAUUACGUCAU | -4.85 ± 0.31 | -2.78 ± 0.23 |
| CUAAAGCAAUAUUACGUCCA | -3.01 ± 0.19 | -2.79 ± 0.31 |
| CUAAAGCAAUAUUACGUCCG | 0.264 ± 0.12 | 0.68 ± 0.16 |
| CUAAAGCAAUAUUACGUCGU | -4.09 ± 0.2 | -2.88 ± 0.22 |
| CUAAAGCAAUAUUACGUGAG | -0.0713 ± 0.047 | -0.2 ± 0.066 |
| CUAAAGCAAUAUUACGUGAU | -1.35 ± 0.07 | -1.14 ± 0.11 |
| CUAAAGCAAUAUUACGUGCU | -2.89 ± 0.14 | -2.75 ± 0.25 |
| CUAAAGCAAUAUUACGUGGG | -2.9 ± 0.11 | -1.09 ± 0.092 |
| CUAAAGCAAUAUUACGUUCA | -3.24 ± 0.12 | -1.56 ± 0.15 |
| CUAAAGCAAUAUUACGUUCC | -3.89 ± 0.4 | -2.25 ± 0.41 |
| CUACAGCAAUAUUACGAAAA | -2.2 ± 0.21 | -1.92 ± 0.21 |

| Sequence | self-splicing fitness (ln) (30 °C) | self-splicing fitness (ln) (37 °C) |
| --- | --- | --- |
| CUACAGCAAUAUUACGACAG | -0.672 ± 0.088 | 0.096 ± 0.11 |
| CUACAGCAAUAUUACGACUC | -4.35 ± 0.22 | -2.7 ± 0.24 |
| CUACAGCAAUAUUACGAUCC | -4.14 ± 0.36 | -1.44 ± 0.26 |
| CUACAGCAAUAUUACGAUCG | -0.0619 ± 0.061 | 0.736 ± 0.085 |
| CUACAGCAAUAUUACGCAAA | -3.36 ± 0.24 | -3.49 ± 0.25 |
| CUACAGCAAUAUUACGCAGA | -3.97 ± 0.28 | -3.07 ± 0.22 |
| CUACAGCAAUAUUACGCAUC | -3.65 ± 0.27 | -1.5 ± 0.16 |
| CUACAGCAAUAUUACGCAUG | -1.48 ± 0.086 | -1.44 ± 0.079 |
| CUACAGCAAUAUUACGCAUU |  | -2.83 ± 0.25 |
| CUACAGCAAUAUUACGCCAG | -1.3 ± 0.13 | -0.891 ± 0.16 |
| CUACAGCAAUAUUACGGAUA | -3.45 ± 0.14 | -3.2 ± 0.16 |
| CUACAGCAAUAUUACGGGCC |  | -3.03 ± 0.47 |
| CUACAGCAAUAUUACGGUUC | -2.93 ± 0.089 | -1.23 ± 0.1 |
| CUACAGCAAUAUUACGGUUU | -3.8 ± 0.16 | -1.31 ± 0.11 |
| CUACAGCAAUAUUACGUAUC | -2.78 ± 0.19 | -3.07 ± 0.24 |
| CUAGAGCAAUAUUACGAAAG | -0.33 ± 0.092 | 0.557 ± 0.12 |
| CUAGAGCAAUAUUACGAACA | -4.05 ± 0.28 | -2.05 ± 0.2 |
| CUAGAGCAAUAUUACGAACC | -1.8 ± 0.47 |  |
| CUAGAGCAAUAUUACGAAGC | -0.938 ± 0.42 | -1.45 ± 0.43 |
| CUAGAGCAAUAUUACGAAUC | -3.87 ± 0.36 | -2.07 ± 0.21 |
| CUAGAGCAAUAUUACGACAU | -3.918 ± 0.03 | -2.71 ± 0.043 |
| CUAGAGCAAUAUUACGACGC |  | -0.974 ± 0.32 |
| CUAGAGCAAUAUUACGAGCU | -3.73 ± 0.31 | -3.37 ± 0.28 |
| CUAGAGCAAUAUUACGAGGU | -3.26 ± 0.16 | -3.24 ± 0.3 |
| CUAGAGCAAUAUUACGCCGU | -2.86 ± 0.32 | -1.99 ± 0.43 |
| CUAGAGCAAUAUUACGCGGG | -2.91 ± 0.22 | 0.316 ± 0.14 |
| CUAGAGCAAUAUUACGCUCC | -2.45 ± 0.42 |  |

| Sequence | self-splicing fitness (ln) (30 °C) | self-splicing fitness (ln) (37 °C) |
| --- | --- | --- |
| CUAGAGCAAUAUUACGCUCG | -3.8 ± 0.46 | -1.69 ± 0.36 |
| CUAGAGCAAUAUUACGCUUA | -3.65 ± 0.3 | -2.77 ± 0.26 |
| CUAGAGCAAUAUUACGGACA | -2.86 ± 0.16 | -1.96 ± 0.29 |
| CUAGAGCAAUAUUACGGAUC | -3.28 ± 0.15 | -3.06 ± 0.4 |
| CUAGAGCAAUAUUACGGCCA | -2.59 ± 0.49 |  |
| CUAGAGCAAUAUUACGGCGA | -3.28 ± 0.32 |  |
| CUAGAGCAAUAUUACGGGCA |  | -2.34 ± 0.36 |
| CUAGAGCAAUAUUACGGUGG | -0.455 ± 0.06 | -0.563 ± 0.089 |
| CUAGAGCAAUAUUACGUACA | -2.59 ± 0.36 | -1.64 ± 0.32 |
| CUAGAGCAAUAUUACGUAUC |  | -1.7 ± 0.26 |
| CUAGAGCAAUAUUACGUAUG | -0.333 ± 0.084 | 0.333 ± 0.11 |
| CUAGAGCAAUAUUACGUCCC |  | -1.71 ± 0.47 |
| CUAGAGCAAUAUUACGUGCA | -3.88 ± 0.21 | -2.18 ± 0.19 |
| CUAGAGCAAUAUUACGUGGA | -3.21 ± 0.19 | -1.68 ± 0.18 |
| CUAGAGCAAUAUUACGUUCU | -3.79 ± 0.21 | -2.21 ± 0.22 |
| CUAUAGCAAUAUUACGAAUA | -2.99 ± 0.34 | -1.47 ± 0.22 |
| CUAUAGCAAUAUUACGACAG | 0.0925 ± 0.097 | 0.0869 ± 0.11 |
| CUAUAGCAAUAUUACGACGA | -1.82 ± 0.19 | -0.725 ± 0.13 |
| CUAUAGCAAUAUUACGACUC |  | -1.31 ± 0.39 |
| CUAUAGCAAUAUUACGAGCG | 0.114 ± 0.086 | 0.29 ± 0.11 |
| CUAUAGCAAUAUUACGAGGU | -4.07 ± 0.42 | -3.28 ± 0.42 |
| CUAUAGCAAUAUUACGAUUU |  | -0.748 ± 0.28 |
| CUAUAGCAAUAUUACGCGAU | -2.31 ± 0.12 | -1.5 ± 0.12 |
| CUAUAGCAAUAUUACGCUGG | -3.36 ± 0.37 | -2.05 ± 0.32 |
| CUAUAGCAAUAUUACGGAUU | -3.43 ± 0.24 | -2.29 ± 0.24 |
| CUAUAGCAAUAUUACGGCGA |  | -0.914 ± 0.47 |

Reference: the supplement of paper PMC7877785
